Measured values as given in IntAct's records for PubMed 31515488.

B1: Cyclin-H (Homo sapiens), P51946 (parent)
chain: MYHNSSQKRHWTFSSEEQLARLRADANRKFRCKAVANGKVLPNDPVFLEPHEEMTLCKYYEKRLLEFCSVFKPAMPRSVVGTACMYFKRFYLNNSVMEYHPRIIMLTCAFLACKVDEFNVSSPQFVGNLRESPLGQEKALEQILEYELLLIQQLNFHLIVHNPYRPFEGFLIDLKTRYPILENPEILRKTADDFLNRIALTDAYLLYTPSQIALTAILSSASRAGITMESYLSESLMLKENRTCLSQLLDIMKSMRNLVKKYEPPRSEEVAVLKQKLERCHSAELALNVITKKRKGYEDDDYVSKKSKHEEEEWTDDDLVESL
B2: Tuftelin-interacting protein 11 (Homo sapiens), Q9UBB9 (parent)
chain: MSLSHLYRDGEGRIDDDDDERENFEITDWDLQNEFNPNRQRHWQTKEEATYGVWAERDSDDERPSFGGKRARDYSAPVNFISAGLKKGAAEEAELEDSDDEEKPVKQDDFPKDFGPRKLKTGGNFKPSQKGFAGGTKSFMDFGSWERHTKGIGQKLLQKMGYVPGRGLGKNAQGIINPIEAKQRKGKGAVGAYGSERTTQSMQDFPVVDSEEEAEEEFQKELSQWRKDPSGSKKKPKYSYKTVEELKAKGRISKKLTAPQKELSQVKVIDMTGREQKVYYSYSQISHKHNVPDDGLPLQSQQLPQSGKEAKAPGFALPELEHNLQLLIDLTEQEIIQNDRQLQYERDMVVNLFHELEKMTEVLDHEERVISNLSKVLEMVEECERRMQPDCSNPLTLDECARIFETLQDKYYEEYRMSDRVDLAVAIVYPLMKEYFKEWDPLKDCTYGTEIISKWKSLLENDQLLSHGGQDLSADAFHRLIWEVWMPFVRNIVTQWQPRNCDPMVDFLDSWVHIIPVWILDNILDQLIFPKLQKEVENWNPLTDTVPIHSWIHPWLPLMQARLEPLYSPIRSKLSSALQKWHPSDSSAKLILQPWKDVFTPGSWEAFMVKNIVPKLGMCLGELVINPHQQHMDAFYWVIDWEGMISVSSLVGLLEKHFFPKWLQVLCSWLSNSPNYEEITKWYLGWKSMFSDQVLAHPSVKDKFNEALDIMNRAVSSNVGAYMQPGARENIAYLTHTERRKDFQYEAMQERREAENMAQRGIGVAASSVPMNFKDLIETKAEEHNIVFMPVIGKRHEGKQLYTFGRIVIYIDRGVVFVQGEKTWVPTSLQSLIDMAK
B3: Isoform 1 of Zinc finger protein 18 (Homo sapiens), P17022-1 (parent)
chain: MPVDLGQALGLLPSLAKAEDSQFSESDAALQEELSSPETARQLFRQFRYQVMSGPHETLKQLRKLCFQWLQPEVHTKEQILEILMLEQFLTILPGEIQMWVRKQCPGSGEEAVTLVESLKGDPQRLWQWISIQVLGQDILSEKMESPSCQVGEVEPHLEVVPQELGLENSSSGPGELLSHIVKEESDTEAELALAASQPARLEERLIRDQDLGASLLPAAPQEQWRQLDSTQKEQYWDLMLETYGKMVSGAGISHPKSDLTNSIEFGEELAGIYLHVNEKIPRPTCIGDRQENDKENLNLENHRDQELLHASCQASGEVPSQASLRGFFTEDEPGCFGEGENLPEALQNIQDEGTGEQLSPQERISEKQLGQHLPNPHSGEMSTMWLEEKRETSQKGQPRAPMAQKLPTCRECGKTFYRNSQLIFHQRTHTGETYFQCTICKKAFLRSSDFVKHQRTHTGEKPCKCDYCGKGFSDFSGLRHHEKIHTGEKPYKCPICEKSFIQRSNFNRHQRVHTGEKPYKCSHCGKSFSWSSSLDKHQRSHLGKKPFQ
B4: Syntenin-2 (Homo sapiens), Q9H190 (parent)
chain: MSSLYPSLEDLKVDQAIQAQVRASPKMPALPVQATAISPPPVLYPNLAELENYMGLSLSSQEVQESLLQIPEGDSTAVSGPGPGQMVAPVTGYSLGVRRAEIKPGVREIHLCKDERGKTGLRLRKVDQGLFVQLVQANTPASLVGLRFGDQLLQIDGRDCAGWSSHKAHQVVKKASGDKIVVVVRDRPFQRTVTMHKDSMGHVGFVIKKGKIVSLVKGSSAARNGLLTNHYVCEVDGQNVIGLKDKKIMEILATAGNVVTLTIIPSVIYEHMVKKLPPVLLHHTMDHSIPDA
partner: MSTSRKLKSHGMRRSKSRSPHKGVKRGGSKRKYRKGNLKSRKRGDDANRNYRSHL

Variants of: B1
Conditions: with klc3_human KLC3, Q6P597

| effect of a mutation on the interaction | Variant |
| --- | --- |
| disrupting interaction strength | MYHNSSQKRHWTFSSEEQLARLRADANRKFRCKAVANGKVLPNDPVFLEPHEEMTLCKYYEKRLLEFCSVFKPAMPRSVVGTACMYFKRFYLNNSVMEYHPRIIMLTCAFLACKVDEFNVSSPQFVGNLRESPLGQEKALEQILEYELLLIQQLTFHLIVHNPYRPFEGFLIDLKTRYPILENPEILRKTADDFLNRIALTDAYLLYTPSQIALTAILSSASRAGITMESYLSESLMLKENRTCLSQLLDIMKSMRNLVKKYEPPRSEEVAVLKQKLERCHSAELALNVITKKRKGYEDDDYVSKKSKHEEEEWTDDDLVESL [N155T] |

Variants of: B1
Conditions: with lipa1_human PPFIA1, Q13136

| effect of a mutation on the interaction | Variant |
| --- | --- |
| disrupting interaction strength | MYHNSSQKRHWTFSSEEQLARLRADANRKFRCKAVANGKVLPNDPVFLEPHEEMTLCKYYEKRLLEFCSVFKPAMPRSVVGTACMYFKRFYLNNSVMEYHPRIIMLTCAFLACKVDEFNVSSPQFVGNLRESPLGQEKALEQILEYELLLIQQLTFHLIVHNPYRPFEGFLIDLKTRYPILENPEILRKTADDFLNRIALTDAYLLYTPSQIALTAILSSASRAGITMESYLSESLMLKENRTCLSQLLDIMKSMRNLVKKYEPPRSEEVAVLKQKLERCHSAELALNVITKKRKGYEDDDYVSKKSKHEEEEWTDDDLVESL [N155T] |

Variants of: B1
Conditions: with dus12_human DUSP12, Q9UNI6

| effect of a mutation on the interaction | Variant |
| --- | --- |
| disrupting interaction strength | MYHNSSQKRHWTFSSEEQLARLRADANRKFRCKAVANGKVLPNDPVFLEPHEEMTLCKYYEKRLLEFCSVFKPAMPRSVVGTACMYFKRFYLNNSVMEYHPRIIMLTCAFLACKVDEFNVSSPQFVGNLRESPLGQEKALEQILEYELLLIQQLTFHLIVHNPYRPFEGFLIDLKTRYPILENPEILRKTADDFLNRIALTDAYLLYTPSQIALTAILSSASRAGITMESYLSESLMLKENRTCLSQLLDIMKSMRNLVKKYEPPRSEEVAVLKQKLERCHSAELALNVITKKRKGYEDDDYVSKKSKHEEEEWTDDDLVESL [N155T] |

Variants of: B2
Conditions: with zmat2_human ZMAT2, Q96NC0
zmat2_human ZMAT2, Q96NC0, sequence (Q96NC0 whole entry): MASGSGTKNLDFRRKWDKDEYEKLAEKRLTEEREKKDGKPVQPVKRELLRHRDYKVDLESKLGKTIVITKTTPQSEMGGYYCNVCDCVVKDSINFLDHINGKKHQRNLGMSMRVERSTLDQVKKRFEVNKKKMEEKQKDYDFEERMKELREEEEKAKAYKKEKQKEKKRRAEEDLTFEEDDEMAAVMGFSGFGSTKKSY

| effect of a mutation on the interaction | Variant |
| --- | --- |
| with no effect | R8Q |
| with no effect | S688L |

Variants of: B2
Conditions: with cox5b_human COX5B

| effect of a mutation on the interaction | Variant |
| --- | --- |
| with no effect | R8Q |
| with no effect | S688L |

Variants of: B2
Conditions: with txlna_human TXLNA

| effect of a mutation on the interaction | Variant |
| --- | --- |
| with no effect | R8Q |
| with no effect | S688L |

Variants of: B2
Conditions: with hook1_human HOOK1, Q9UJC3
hook1_human HOOK1, Q9UJC3, sequence (Q9UJC3 whole entry): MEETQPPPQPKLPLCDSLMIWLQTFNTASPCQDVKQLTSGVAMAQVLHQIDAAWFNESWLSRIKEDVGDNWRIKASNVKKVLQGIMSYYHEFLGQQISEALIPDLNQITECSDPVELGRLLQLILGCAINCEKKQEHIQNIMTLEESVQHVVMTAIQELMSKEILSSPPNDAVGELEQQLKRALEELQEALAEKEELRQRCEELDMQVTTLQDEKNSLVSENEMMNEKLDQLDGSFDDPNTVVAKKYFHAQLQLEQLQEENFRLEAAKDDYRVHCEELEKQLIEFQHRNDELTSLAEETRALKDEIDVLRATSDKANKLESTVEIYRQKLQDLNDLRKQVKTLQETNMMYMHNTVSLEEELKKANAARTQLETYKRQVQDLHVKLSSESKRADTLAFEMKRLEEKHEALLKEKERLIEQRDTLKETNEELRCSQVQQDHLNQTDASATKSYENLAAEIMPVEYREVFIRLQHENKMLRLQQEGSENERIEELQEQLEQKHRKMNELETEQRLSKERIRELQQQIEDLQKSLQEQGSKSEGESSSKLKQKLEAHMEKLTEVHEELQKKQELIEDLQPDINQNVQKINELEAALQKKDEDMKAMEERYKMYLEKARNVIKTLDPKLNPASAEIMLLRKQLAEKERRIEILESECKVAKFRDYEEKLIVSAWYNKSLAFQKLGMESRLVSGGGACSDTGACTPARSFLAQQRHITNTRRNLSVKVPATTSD

| effect of a mutation on the interaction | Variant |
| --- | --- |
| with no effect | R8Q |
| with no effect | S688L |

Variants of: B2
Conditions: with tnnt1_human TNNT1, P13805
tnnt1_human TNNT1, P13805, sequence (P13805 whole entry): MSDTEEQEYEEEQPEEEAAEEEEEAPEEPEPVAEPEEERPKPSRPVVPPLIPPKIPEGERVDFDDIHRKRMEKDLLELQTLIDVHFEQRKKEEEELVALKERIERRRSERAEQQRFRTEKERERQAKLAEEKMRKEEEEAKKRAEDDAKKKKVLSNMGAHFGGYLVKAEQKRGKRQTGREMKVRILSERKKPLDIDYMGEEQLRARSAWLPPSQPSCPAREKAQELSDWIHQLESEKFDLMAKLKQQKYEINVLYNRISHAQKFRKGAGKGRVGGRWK

| effect of a mutation on the interaction | Variant |
| --- | --- |
| with no effect | R8Q |
| with no effect | S688L |

Variants of: B2
Conditions: with coq8a_human COQ8A

| effect of a mutation on the interaction | Variant |
| --- | --- |
| with no effect | R8Q |
| with no effect | S688L |

Variants of: B2
Conditions: with smce1_human SMARCE1, Q969G3

| effect of a mutation on the interaction | Variant |
| --- | --- |
| with no effect | R8Q |
| with no effect | S688L |

Variants of: B2
Conditions: with bmf_human BMF

| effect of a mutation on the interaction | Variant |
| --- | --- |
| with no effect | R8Q |
| with no effect | S688L |

Variants of: B2
Conditions: with fa13c_human FAM13C

| effect of a mutation on the interaction | Variant |
| --- | --- |
| with no effect | R8Q |
| with no effect | S688L |

Variants of: B2
Conditions: with prp31_human PRPF31, Q8WWY3
prp31_human PRPF31, Q8WWY3, sequence (Q8WWY3 whole entry): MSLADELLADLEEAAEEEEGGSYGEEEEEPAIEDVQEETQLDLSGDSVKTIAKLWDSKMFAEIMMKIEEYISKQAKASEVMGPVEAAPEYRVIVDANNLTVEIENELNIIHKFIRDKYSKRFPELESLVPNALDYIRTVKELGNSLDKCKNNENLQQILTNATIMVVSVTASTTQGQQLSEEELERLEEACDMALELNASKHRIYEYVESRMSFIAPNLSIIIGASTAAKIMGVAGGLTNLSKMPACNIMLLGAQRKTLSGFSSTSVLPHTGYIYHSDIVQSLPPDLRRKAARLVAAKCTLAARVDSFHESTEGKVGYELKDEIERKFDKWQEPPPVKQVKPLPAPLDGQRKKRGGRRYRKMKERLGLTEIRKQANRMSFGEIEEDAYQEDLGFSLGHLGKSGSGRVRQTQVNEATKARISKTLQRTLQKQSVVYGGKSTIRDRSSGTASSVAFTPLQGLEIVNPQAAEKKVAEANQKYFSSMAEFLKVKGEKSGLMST

| effect of a mutation on the interaction | Variant |
| --- | --- |
| with no effect | R8Q |
| with no effect | S688L |

Variants of: B2
Conditions: with snw1_human SNW1, Q13573
snw1_human SNW1, Q13573, sequence (Q13573 whole entry): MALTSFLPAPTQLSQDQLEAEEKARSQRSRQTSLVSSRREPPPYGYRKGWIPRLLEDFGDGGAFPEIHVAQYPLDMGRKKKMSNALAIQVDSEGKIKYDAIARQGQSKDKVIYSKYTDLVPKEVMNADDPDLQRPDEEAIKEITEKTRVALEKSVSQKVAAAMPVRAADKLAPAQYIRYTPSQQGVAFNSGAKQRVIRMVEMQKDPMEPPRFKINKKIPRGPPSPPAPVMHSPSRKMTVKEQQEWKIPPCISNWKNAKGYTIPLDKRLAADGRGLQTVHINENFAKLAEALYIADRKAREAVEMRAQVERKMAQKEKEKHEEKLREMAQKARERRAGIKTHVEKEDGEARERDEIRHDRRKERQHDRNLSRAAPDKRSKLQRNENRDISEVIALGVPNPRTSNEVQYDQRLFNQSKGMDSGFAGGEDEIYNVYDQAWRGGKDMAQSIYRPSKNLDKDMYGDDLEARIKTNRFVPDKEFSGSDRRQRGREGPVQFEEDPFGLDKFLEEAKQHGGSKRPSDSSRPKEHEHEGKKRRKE

| effect of a mutation on the interaction | Variant |
| --- | --- |
| with no effect | R8Q |
| with no effect | S688L |

Variants of: B2
Conditions: with sfr1_human SFR1, Q86XK3

| effect of a mutation on the interaction | Variant |
| --- | --- |
| with no effect | R8Q |
| with no effect | S688L |

Variants of: B2
Conditions: with zfy26_human ZFYVE26, Q68DK2
zfy26_human ZFYVE26, Q68DK2, sequence (Q68DK2 whole entry): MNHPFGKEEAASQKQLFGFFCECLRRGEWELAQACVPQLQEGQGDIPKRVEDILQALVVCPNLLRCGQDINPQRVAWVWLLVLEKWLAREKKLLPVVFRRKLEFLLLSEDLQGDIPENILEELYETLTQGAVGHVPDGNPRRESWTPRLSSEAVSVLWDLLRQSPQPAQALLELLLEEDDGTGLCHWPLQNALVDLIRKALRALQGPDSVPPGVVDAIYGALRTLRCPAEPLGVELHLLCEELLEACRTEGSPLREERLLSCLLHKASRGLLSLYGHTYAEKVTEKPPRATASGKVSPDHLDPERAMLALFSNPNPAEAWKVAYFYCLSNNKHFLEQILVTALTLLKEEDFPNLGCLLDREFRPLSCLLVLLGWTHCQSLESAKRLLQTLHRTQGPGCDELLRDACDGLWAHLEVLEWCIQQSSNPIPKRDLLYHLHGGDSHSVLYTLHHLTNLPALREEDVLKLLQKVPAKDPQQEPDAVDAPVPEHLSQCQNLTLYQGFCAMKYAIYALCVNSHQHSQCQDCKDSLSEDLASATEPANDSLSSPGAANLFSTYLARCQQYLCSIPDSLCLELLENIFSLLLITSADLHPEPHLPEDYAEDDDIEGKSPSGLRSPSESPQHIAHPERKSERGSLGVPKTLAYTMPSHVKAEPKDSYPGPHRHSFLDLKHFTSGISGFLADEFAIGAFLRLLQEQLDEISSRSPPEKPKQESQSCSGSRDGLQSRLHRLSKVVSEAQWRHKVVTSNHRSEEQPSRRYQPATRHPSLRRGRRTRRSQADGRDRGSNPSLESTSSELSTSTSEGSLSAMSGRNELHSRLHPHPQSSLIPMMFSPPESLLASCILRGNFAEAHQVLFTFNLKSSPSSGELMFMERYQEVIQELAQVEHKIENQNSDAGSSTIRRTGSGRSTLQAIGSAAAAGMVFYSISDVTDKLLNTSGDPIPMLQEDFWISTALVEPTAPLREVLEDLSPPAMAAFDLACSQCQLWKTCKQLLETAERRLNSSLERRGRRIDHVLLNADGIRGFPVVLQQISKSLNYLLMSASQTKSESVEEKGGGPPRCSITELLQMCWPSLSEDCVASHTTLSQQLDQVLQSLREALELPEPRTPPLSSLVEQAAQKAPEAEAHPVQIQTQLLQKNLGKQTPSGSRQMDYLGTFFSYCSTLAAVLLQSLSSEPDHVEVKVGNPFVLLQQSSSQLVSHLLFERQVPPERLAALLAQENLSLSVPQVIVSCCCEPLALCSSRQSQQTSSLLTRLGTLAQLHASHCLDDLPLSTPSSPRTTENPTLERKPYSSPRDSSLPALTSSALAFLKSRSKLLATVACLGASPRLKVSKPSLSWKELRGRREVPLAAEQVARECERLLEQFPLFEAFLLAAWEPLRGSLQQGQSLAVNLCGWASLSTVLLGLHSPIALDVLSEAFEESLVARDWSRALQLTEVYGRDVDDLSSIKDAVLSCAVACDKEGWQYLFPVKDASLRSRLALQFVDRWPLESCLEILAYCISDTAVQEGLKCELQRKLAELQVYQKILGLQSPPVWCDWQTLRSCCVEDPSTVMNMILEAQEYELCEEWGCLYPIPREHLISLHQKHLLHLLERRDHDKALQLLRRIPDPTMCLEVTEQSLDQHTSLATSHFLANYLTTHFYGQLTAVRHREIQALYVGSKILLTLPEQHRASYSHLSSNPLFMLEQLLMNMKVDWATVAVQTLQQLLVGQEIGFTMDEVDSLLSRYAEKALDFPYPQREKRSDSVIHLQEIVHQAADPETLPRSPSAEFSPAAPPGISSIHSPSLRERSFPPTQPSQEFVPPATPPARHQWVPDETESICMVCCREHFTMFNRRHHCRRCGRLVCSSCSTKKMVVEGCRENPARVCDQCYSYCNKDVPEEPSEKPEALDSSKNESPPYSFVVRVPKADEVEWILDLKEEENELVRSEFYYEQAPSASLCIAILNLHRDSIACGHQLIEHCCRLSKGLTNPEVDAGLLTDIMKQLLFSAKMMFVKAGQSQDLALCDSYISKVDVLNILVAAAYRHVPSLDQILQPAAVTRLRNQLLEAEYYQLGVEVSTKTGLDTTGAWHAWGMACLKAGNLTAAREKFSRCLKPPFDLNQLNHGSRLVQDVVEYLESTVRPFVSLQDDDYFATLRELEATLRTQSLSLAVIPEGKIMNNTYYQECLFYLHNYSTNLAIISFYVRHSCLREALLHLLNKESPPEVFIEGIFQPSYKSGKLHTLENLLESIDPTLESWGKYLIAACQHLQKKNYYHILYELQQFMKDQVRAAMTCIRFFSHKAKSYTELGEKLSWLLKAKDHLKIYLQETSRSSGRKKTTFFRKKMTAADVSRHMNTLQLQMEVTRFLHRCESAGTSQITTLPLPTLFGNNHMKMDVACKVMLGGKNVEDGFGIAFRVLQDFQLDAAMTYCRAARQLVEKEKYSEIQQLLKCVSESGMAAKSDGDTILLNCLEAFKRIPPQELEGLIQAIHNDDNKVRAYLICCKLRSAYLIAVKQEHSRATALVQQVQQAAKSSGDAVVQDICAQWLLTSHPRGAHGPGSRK

| effect of a mutation on the interaction | Variant |
| --- | --- |
| with no effect | R8Q |
| with no effect | S688L |

Variants of: B2
Conditions: with abi2_human ABI2, Q9NYB9

| effect of a mutation on the interaction | Variant |
| --- | --- |
| with no effect | R8Q |
| with no effect | S688L |

Variants of: B2
Conditions: with cc121_human CCDC121, Q6ZUS5
cc121_human CCDC121, Q6ZUS5, sequence (Q6ZUS5 whole entry): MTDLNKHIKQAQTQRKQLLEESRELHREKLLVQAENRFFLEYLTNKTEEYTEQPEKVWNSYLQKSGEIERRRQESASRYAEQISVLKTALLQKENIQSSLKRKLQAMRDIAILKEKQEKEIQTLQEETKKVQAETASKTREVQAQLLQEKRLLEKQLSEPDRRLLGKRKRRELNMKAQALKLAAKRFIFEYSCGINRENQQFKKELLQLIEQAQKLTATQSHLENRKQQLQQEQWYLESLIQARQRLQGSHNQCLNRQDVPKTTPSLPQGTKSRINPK

| effect of a mutation on the interaction | Variant |
| --- | --- |
| with no effect | R8Q |
| with no effect | S688L |

Variants of: B2
Conditions: with KRT6A

| effect of a mutation on the interaction | Variant |
| --- | --- |
| with no effect | R8Q |
| with no effect | S688L |

Variants of: B2
Conditions: with lca5l_human LCA5L

| effect of a mutation on the interaction | Variant |
| --- | --- |
| with no effect | M140V |

Variants of: B2
Conditions: with ccnd3_human CCND3, P30281

| effect of a mutation on the interaction | Variant |
| --- | --- |
| with no effect | M140V |

Variants of: B2
Conditions: with cenpu_human CENPU

| effect of a mutation on the interaction | Variant |
| --- | --- |
| with no effect | M140V |

Variants of: B3
Conditions: with ttc32_human TTC32, Q5I0X7

| effect of a mutation on the interaction | Variant |
| --- | --- |
| with no effect | MPVDLGQALGLLPSLAKAEDSQFSESDAALQEELSSPETARQLFRQFRYQVMSGPHETLKQLRKLCFQWLQPEVHTKEQILEILMLEQFLTILPGEIQMWVRKQCPGSGEEAVTLVESLKGDPQRLWQWISIQVLGQDILSEKMESPSCQVGEVEPHLEVVPQELGLENSSSGPGELLSHIVKEESDTEAELALAASQPARLEERLIRDQDLGASLLPAAPQEQWRQLDSTQKEQYWDLMLETYGKMVSGAGISHPKSDLTNSIEFGEELAGIYLHVNEKIPRPTCIGDRQENDKENLNLENHRDQELLHASCQASGEVPSQASLRGFFTEDEPGCFGEGENLPEALQNIQDEGTGEQLSPQERISEKQLGQHLPNPHSGEMSTMWFEEKRETSQKGQPRAPMAQKLPTCRECGKTFYRNSQLIFHQRTHTGETYFQCTICKKAFLRSSDFVKHQRTHTGEKPCKCDYCGKGFSDFSGLRHHEKIHTGEKPYKCPICEKSFIQRSNFNRHQRVHTGEKPYKCSHCGKSFSWSSSLDKHQRSHLGKKPFQ [L387F] |

Variants of: B3
Conditions: with ccnc_human CCNC

| effect of a mutation on the interaction | Variant |
| --- | --- |
| with no effect | MPVDLGQALGLLPSLAKAEDSQFSESDAALQEELSSPETARQLFRQFRYQVMSGPHETLKQLRKLCFQWLQPEVHTKEQILEILMLEQFLTILPGEIQMWVRKQCPGSGEEAVTLVESLKGDPQRLWQWISIQVLGQDILSEKMESPSCQVGEVEPHLEVVPQELGLENSSSGPGELLSHIVKEESDTEAELALAASQPARLEERLIRDQDLGASLLPAAPQEQWRQLDSTQKEQYWDLMLETYGKMVSGAGISHPKSDLTNSIEFGEELAGIYLHVNEKIPRPTCIGDRQENDKENLNLENHRDQELLHASCQASGEVPSQASLRGFFTEDEPGCFGEGENLPEALQNIQDEGTGEQLSPQERISEKQLGQHLPNPHSGEMSTMWFEEKRETSQKGQPRAPMAQKLPTCRECGKTFYRNSQLIFHQRTHTGETYFQCTICKKAFLRSSDFVKHQRTHTGEKPCKCDYCGKGFSDFSGLRHHEKIHTGEKPYKCPICEKSFIQRSNFNRHQRVHTGEKPYKCSHCGKSFSWSSSLDKHQRSHLGKKPFQ [L387F] |

Variants of: B4
Conditions: with stp1_human TNP1, P09430

| effect of a mutation on the interaction | Variant |
| --- | --- |
| disrupting interaction strength | MSSLYPSLEDLKVDQAIQAQVRASPKMPALPVQATAISPPPVLYPNLAELENYMGLSLSSQEVQESLLQIPEGDSTAVSGPGPGQMVAPVTGYSLGVRRAEIKPGVREIHLCKDERGKTGLRLRKVDQGLFVQLVQANTPASLVGLRFGDQLLQIDGRDCAGWSSHKAHQVVKKASGDKIVVVVRDRPFQRTVTMHKDSMGHVGFVIKKGKIVSLVKGSSAARNGLLTNHYVCEVDGQNVIRLKDKKIMEILATAGNVVTLTIIPSVIYEHMVKKLPPVLLHHTMDHSIPDA [G242R] |
| disrupting interaction strength | MSSLYPSLEDLKVDQAIQAQVRASPKMPALPVQATAISPPPVLYPNLAELENYMGLSLSSQEVQESLLQIPEGDSTAVSGPGPGQMVAPVTGYSLGVRRAEIKPGVREIHLCKDERGKTGLRLRKVDQGLFVQLVQANTPASLVGLRFGDQLLQIDGRDCAGWSSHKAHQVVKKASGDKIVVVVRDRPFQRTVTMHKDSMGHVGFVIKKGKIVSLVKGSSAARNRLLTNHYVCEVDGQNVIGLKDKKIMEILATAGNVVTLTIIPSVIYEHMVKKLPPVLLHHTMDHSIPDA [G225R] |
